# Reference: patent US20240034779A1 (Takeda / Millennium, published 2024)
# B1: anti-CFD antibody 2 (clone 169C8) (antibody, human IgG1, lambda, L234A L235A, V domains shown)
# VH: EVQVQESGPGLVKPSQTLSLTCTVSGGSITTSYYAWSWIRQPPGKGLEWMGDIANDGSTYYSPSLESRTSISRDTSKNQFSLQLSSVTPEDTAVYYCARLRSLYTDYDPHYYDYWGQGTQVTVSS
# VL: SSALTQPSALSVTKGQTAKITCQGDLLPRHYAHWYQQKTGQAPKLIVYDDDIRPSGIPERFSGSNSGGVATLTIAGAQAEDEADYHCQSADSNDDAVFGGGTHLTVLS
# notes: also called anti-CFD mAb 2; ASHE mAb
# Tests used:
# [1] = target: T1, cynomolgus complement factor D (CFD) (cynomolgus monkey); experiment: SPR (Biacore), pH 7.4
# T1 construct: also called cyno CFD; cynomolgus CFD
# [2] = target: T2, human complement factor D (CFD) (human, UniProt P00746 26-253, limits assumed); experiment: SPR (Biacore), pH 5.5
# T2 construct: also called human CFD; adipsin
# [3] = target: T1, cynomolgus complement factor D (CFD); experiment: SPR (Biacore), pH 5.5
# [4] = target: T2, human complement factor D (CFD); experiment: SPR (Biacore), pH 7.4; pH 7.4
# T2 sequence (P00746 26-253 limits assumed): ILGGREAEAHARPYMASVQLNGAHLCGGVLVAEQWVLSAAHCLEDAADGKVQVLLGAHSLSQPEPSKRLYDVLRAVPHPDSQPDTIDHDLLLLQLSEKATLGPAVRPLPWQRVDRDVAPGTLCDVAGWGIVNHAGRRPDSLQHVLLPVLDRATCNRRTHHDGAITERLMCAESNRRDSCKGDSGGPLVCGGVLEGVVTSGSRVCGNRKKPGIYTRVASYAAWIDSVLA
binder,measurement,setting,value
B1,Kd,[1],0.037 nM
same,Kd,[2],805 nM
same,Kd,[3],4.59 nM
same,Kd,[4],0.002 nM
